Target: the molecule itself
Experiment: SEC-HPLC with light scattering, self-association (homodimer)

B1: recombinant human heparan N-sulfatase (rhHNS), mature form (enzyme)
chain: RPRNALLLLADDGGFESGAYNNSAIATPHLDALARRSLLFRNAFTSVSSCSPSRASLLTGLPQHQNGMYGLHQDVHHFNSFDKVRSLPLLLSQAGVRTGIIGKKHVGPETVYPFDFAYTEENGSVLQVGRNITRIKLLVRKFLQTQDDRPFFLYVAFHDPHRCGHSQPQYGTFCEKFGNGESGMGRIPDWTPQAYDPLDVLVPYFVPNTPAARADLAAQYTTVGRMDQGVGLVLQELRDAGVLNDTLVIFTSDNGIPFPSGRTNLYWPGTAEPLLVSSPEHPKRWGQVSEAYVSLLDLTPTILDWFSIPYPSYAIFGSKTIHLTGRSLLPALEAEPLWATVFGSQSHHEVTMSYPMRSVQHRHFRLVHNLNFKMPFPIDQDFYVSPTFQDLLNRTTAGQPTGWYKDLRHYYYRARWELYDRSRDPHETQNLATDPRFAQLLEMLRDQLAKWQWETHDPWVCAPDGVLEEKLSPQCQPLHNEL
notes: In the immunohistochemistry it was detected in fixed monkey tissue after intrathecal dosing; also called sulfamidase; human HNS
  binding result: binds

Reference: US20120014936A1 (SHIRE HUMAN GENETIC THERAPIES, published 2012)
